# Legend:
# [1] = target: Factor X (FX), P00742
# [2] = target: Factor X, P00742
# [3] = target: plasma purified human antithrombin III (AT-III), in complex with unfractionated heparin (UFH); assay: ratio of K0.5 for AT-III/UFH inhibition, variant over Catalyst Biosciences WT FIXa; calculated from the lower-limit K0.5
# [4] = target: plasma purified human antithrombin III (AT-III), in complex with unfractionated heparin; assay: K0.5 of variant over K0.5 of Catalyst Biosciences WT FIXa; AT-III/UFH inhibition assay
# [5] = target: antithrombin III (plasma purified human AT-III), used as the AT-III/unfractionated heparin complex; assay: K0.5 ratio to Catalyst Biosciences WT FIXa, AT-III/UFH inhibition assay (from lower-limit K0.5)
# [6] = target: T1, Antithrombin III (plasma purified human AT-III, Molecular Innovations); assay: same assay; ratio of the lower-limit K0.5 to recombinant wild-type FIXa (Catalyst Biosciences WT)
# [7] = target: T1, Antithrombin III (plasma purified human …); assay: AT-III/UFH inhibition, expanded sensitivity assay (1000 nM-0 nM and 5000-0 nM AT-III); assigned lower limit for less than 10% inhibition
# Chain of Factor X, P00742 (P00742 whole entry, looked up): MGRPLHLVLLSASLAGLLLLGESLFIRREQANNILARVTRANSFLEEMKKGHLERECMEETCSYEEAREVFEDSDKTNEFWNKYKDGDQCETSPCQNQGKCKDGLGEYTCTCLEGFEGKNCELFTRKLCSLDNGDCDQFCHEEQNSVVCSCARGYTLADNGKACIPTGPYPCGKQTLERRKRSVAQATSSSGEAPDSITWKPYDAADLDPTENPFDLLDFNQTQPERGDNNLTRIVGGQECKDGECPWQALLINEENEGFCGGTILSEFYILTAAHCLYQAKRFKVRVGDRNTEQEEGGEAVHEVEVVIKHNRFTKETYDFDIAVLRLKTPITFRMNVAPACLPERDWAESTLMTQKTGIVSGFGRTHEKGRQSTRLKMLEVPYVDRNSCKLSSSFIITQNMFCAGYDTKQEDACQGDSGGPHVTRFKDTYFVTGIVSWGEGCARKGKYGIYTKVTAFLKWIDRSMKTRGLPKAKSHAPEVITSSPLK
# Chain of Factor X (FX), P00742 (P00742 whole entry, looked up): as above
protein,measurement,setting,value
FIXa-R318Y/R338E/T343R/R403E/E410N (protein) chain 1: YNSGKLEEFVQGNLERECMEEKCSFEEAREVFENTERTTEFWKQYVDGDQCESNPCLNGGSCKDDINSYECWCPFGFEGKNCELDVTCNIKNGRCEQFCKNSADNKVVCSCTEGYRLAENQKSCEPAVPFPCGRVSVSQTSKLTR chain 2: VVGGEDAKPGQFPWQVVLNGKVDAFCGGSIVNEKWIVTAAHCVETGVKITVVAGEHNIEETEHTEQKRNVIRIIPHHNYNAAINKYNHDIALLELDEPLVLNSYVTPICIADKEYTNIFLKFGSGYVSGWGRVFHKGYSALVLQYLRVPLVDRATCLESTKFRIYNNMFCAGFHEGGRDSCQGDSGGPHVTEVEGTSFLTGIISWGEECAMKGKYGIYTKVSEYVNWIKNKTKLT,KM,[1],0.0223 µM
same,catalytic activity (kcat/KM) for activation of FX,[1],displayed some of the greatest increases in catalytic activity
same,"kcat of FX activation by FIXa (Xase complex with FVIIIa, PC/PS vesicles, Ca2+)",[1],9.7 s⁻¹
same,% of WT kcat/KM,[2],1217%
same,kcat,[2],11.8 s⁻¹
same,kcat/KM,[2],5.4e+08 M⁻¹ s⁻¹
same,K0.5-mut/K0.5-wt,[3],> 517 fold
FIXa D203N/F205T/R318Y/E410N (protein) chain 1: YNSGKLEEFVQGNLERECMEEKCSFEEAREVFENTERTTEFWKQYVDGDQCESNPCLNGGSCKDDINSYECWCPFGFEGKNCELDVTCNIKNGRCEQFCKNSADNKVVCSCTEGYRLAENQKSCEPAVPFPCGRVSVSQTSKLTR chain 2: VVGGEDAKPGQFPWQVVLNGKVNATCGGSIVNEKWIVTAAHCVETGVKITVVAGEHNIEETEHTEQKRNVIRIIPHHNYNAAINKYNHDIALLELDEPLVLNSYVTPICIADKEYTNIFLKFGSGYVSGWGRVFHKGYSALVLQYLRVPLVDRATCLRSTKFTIYNNMFCAGFHEGGRDSCQGDSGGPHVTEVEGTSFLTGIISWGEECAMKGKYGIYTKVSRYVNWIKNKTKLT,KM,[1],0.0457 µM
same,K0.5-mut/K0.5-wt,[4],66.2
FIXa A103N/N105S/R318Y/R338E/R403E/E410N (protein) chain 1: YNSGKLEEFVQGNLERECMEEKCSFEEAREVFENTERTTEFWKQYVDGDQCESNPCLNGGSCKDDINSYECWCPFGFEGKNCELDVTCNIKNGRCEQFCKNSNDSKVVCSCTEGYRLAENQKSCEPAVPFPCGRVSVSQTSKLTR chain 2: VVGGEDAKPGQFPWQVVLNGKVDAFCGGSIVNEKWIVTAAHCVETGVKITVVAGEHNIEETEHTEQKRNVIRIIPHHNYNAAINKYNHDIALLELDEPLVLNSYVTPICIADKEYTNIFLKFGSGYVSGWGRVFHKGYSALVLQYLRVPLVDRATCLESTKFTIYNNMFCAGFHEGGRDSCQGDSGGPHVTEVEGTSFLTGIISWGEECAMKGKYGIYTKVSEYVNWIKNKTKLT,KM,[1],0.0447 µM
same,K0.5-mut/K0.5-wt,[4],475
FIXa-R318Y/R338E/R403E (protein) chain 1: YNSGKLEEFVQGNLERECMEEKCSFEEAREVFENTERTTEFWKQYVDGDQCESNPCLNGGSCKDDINSYECWCPFGFEGKNCELDVTCNIKNGRCEQFCKNSADNKVVCSCTEGYRLAENQKSCEPAVPFPCGRVSVSQTSKLTR chain 2: VVGGEDAKPGQFPWQVVLNGKVDAFCGGSIVNEKWIVTAAHCVETGVKITVVAGEHNIEETEHTEQKRNVIRIIPHHNYNAAINKYNHDIALLELDEPLVLNSYVTPICIADKEYTNIFLKFGSGYVSGWGRVFHKGYSALVLQYLRVPLVDRATCLESTKFTIYNNMFCAGFHEGGRDSCQGDSGGPHVTEVEGTSFLTGIISWGEECAMKGKYGIYTKVSEYVNWIKEKTKLT,KM,[2],0.0537 µM
same,K0.5-mut/K0.5-wt,[5],> 517 fold
same,K0.5-mut/K0.5-wt,[6],> 517
same,K0.5,[7],> 10 µM

# From patent publication US20210238260
